Measured values: paper PMC3962721

Tests used:
[1] = target: T1, DDB2 (FLAG-tagged, in DDB.com);DDB1;Cul4A;Roc1 (Homo sapiens?;Homo sapiens?;Homo …, UniProt Q92466;Q16531;Q13619;P62877 1-427;1-1140;1-759;1-108, |||); assay: competition
[2] = target: T1, DDB2 (FLAG-tagged, in …); assay: competition; remark: listed apart in the source
[3] = target: T1, DDB2 (FLAG-tagged, in …); assay: EMSA
[4] = target: T1, DDB2 (FLAG-tagged, in …); assay: EMSA; remark: listed apart in the source

T1 sequence (Q92466 whole entry, chain 1 of 4): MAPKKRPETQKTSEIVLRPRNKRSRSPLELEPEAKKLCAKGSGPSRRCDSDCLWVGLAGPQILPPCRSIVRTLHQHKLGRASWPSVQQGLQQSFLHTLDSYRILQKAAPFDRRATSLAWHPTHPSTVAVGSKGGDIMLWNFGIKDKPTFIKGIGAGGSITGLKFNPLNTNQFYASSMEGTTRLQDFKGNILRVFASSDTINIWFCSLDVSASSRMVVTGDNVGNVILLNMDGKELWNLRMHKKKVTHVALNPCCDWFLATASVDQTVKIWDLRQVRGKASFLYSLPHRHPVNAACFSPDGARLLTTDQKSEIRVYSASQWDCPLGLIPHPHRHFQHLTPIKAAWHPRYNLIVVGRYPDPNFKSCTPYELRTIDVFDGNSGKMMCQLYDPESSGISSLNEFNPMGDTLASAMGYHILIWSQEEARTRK
T1 sequence (Q16531 whole entry, chain 2 of 4): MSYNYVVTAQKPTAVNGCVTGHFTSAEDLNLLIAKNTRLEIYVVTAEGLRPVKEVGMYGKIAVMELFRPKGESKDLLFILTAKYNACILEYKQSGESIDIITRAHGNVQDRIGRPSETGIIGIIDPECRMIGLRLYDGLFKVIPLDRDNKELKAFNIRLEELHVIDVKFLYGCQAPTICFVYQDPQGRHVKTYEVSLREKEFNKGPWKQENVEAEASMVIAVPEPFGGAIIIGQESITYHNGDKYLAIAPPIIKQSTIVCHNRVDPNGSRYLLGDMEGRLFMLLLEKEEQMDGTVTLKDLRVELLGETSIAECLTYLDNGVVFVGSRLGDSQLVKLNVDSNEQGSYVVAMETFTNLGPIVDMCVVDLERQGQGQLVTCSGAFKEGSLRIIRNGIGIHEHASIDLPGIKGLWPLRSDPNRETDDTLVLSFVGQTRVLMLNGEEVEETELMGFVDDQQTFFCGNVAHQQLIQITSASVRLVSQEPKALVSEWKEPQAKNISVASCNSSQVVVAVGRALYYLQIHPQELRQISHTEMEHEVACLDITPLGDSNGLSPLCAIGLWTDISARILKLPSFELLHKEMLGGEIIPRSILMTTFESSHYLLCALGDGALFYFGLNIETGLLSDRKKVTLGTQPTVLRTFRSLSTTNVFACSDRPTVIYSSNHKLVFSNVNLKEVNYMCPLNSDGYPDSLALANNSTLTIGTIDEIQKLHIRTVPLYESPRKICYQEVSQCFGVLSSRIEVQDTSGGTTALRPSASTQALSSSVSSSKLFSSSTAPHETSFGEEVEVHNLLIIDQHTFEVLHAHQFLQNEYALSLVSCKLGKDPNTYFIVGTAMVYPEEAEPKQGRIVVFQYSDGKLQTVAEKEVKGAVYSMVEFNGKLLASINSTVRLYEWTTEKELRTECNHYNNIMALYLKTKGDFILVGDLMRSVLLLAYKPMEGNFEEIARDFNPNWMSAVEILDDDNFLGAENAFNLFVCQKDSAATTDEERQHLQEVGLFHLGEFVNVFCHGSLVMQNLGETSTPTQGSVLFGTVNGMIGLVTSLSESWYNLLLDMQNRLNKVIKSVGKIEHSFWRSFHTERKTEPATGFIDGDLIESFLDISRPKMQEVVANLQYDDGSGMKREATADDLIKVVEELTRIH
T1 sequence (Q13619 whole entry, chain 3 of 4): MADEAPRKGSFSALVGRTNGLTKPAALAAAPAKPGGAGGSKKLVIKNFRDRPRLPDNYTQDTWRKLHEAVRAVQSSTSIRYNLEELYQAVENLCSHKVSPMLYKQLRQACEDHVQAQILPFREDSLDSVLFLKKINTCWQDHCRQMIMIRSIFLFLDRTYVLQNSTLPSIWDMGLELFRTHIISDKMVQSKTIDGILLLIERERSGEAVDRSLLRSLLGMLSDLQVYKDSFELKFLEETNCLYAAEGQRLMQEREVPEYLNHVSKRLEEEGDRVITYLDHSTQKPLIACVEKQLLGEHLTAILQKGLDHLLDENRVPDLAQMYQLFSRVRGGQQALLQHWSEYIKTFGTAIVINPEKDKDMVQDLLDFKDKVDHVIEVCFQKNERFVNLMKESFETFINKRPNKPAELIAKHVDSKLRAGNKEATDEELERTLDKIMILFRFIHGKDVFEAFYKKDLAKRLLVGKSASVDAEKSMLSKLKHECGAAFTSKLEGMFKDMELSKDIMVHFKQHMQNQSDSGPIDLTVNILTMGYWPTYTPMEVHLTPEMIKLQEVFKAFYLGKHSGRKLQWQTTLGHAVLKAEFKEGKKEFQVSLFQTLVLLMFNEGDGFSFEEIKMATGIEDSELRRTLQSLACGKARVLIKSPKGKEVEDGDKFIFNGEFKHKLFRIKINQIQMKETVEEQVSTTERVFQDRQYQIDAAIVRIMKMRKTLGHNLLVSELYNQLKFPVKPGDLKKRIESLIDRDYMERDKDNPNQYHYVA
T1 sequence (P62877 whole entry, chain 4 of 4): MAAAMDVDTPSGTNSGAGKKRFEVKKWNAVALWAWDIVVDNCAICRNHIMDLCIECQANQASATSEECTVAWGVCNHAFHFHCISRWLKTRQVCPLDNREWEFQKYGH

B1: Om (unlabeled mutant BCP1 competitor) (dsDNA)
DNA 1: ATTAGGATATTGAAGCCTTTCAAT
DNA 2: ATTGAAAGGCTTCAATATCCTAAT
- binding result [1]: no binding

B2: Ow (unlabeled wild-type BCP1 competitor) (dsDNA)
DNA 1: ATTAGGAGCTTGAAGCCTTTCAAT
DNA 2: ATTGAAAGGCTTCAAGCTCCTAAT
- binding result [2]: binds

B3: MnSOD probe (dsDNA)
DNA 1: GAGGCTAGCCTGCAGCCTCCTTTCTCC
DNA 2: GGAGAAAGGAGGCTGCAGGCTAGCCTC
- binding result [3]: binds

B4: Bcl-2 probe (BCP1) (dsDNA)
DNA 1: ATTAGGAGCTTGAAGCCTTTCAAT
DNA 2: ATTGAAAGGCTTCAAGCTCCTAAT
- binding result [4]: binds
